# Experimental data as given in article PMC2940738.
# Biological target: T1, ETS-4 (Caenorhabditis elegans) (UniProt A8WFJ9)
# T1 sequence: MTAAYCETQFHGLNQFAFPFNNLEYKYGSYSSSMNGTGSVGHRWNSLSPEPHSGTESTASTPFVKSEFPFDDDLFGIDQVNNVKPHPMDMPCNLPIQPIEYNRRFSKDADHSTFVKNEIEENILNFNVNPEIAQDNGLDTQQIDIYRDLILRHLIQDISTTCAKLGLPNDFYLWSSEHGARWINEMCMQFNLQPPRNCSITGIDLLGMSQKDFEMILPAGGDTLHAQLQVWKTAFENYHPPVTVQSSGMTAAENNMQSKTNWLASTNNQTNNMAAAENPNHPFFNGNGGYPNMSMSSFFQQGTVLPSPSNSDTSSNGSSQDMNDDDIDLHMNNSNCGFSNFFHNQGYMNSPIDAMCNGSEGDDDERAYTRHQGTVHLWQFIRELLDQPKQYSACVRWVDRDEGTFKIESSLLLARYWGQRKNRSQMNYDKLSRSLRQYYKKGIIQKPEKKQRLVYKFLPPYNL
# Experiment: EMSA
# Conditions: 25 mM Tris-Cl pH 7.9, 10% glycerol, 0.1 mM EDTA, 60 mM KCl, 6 mM MgCl2, 0.2 mg/ml BSA, 10 mM DTT, 50 ng poly[d(I-C)] in 20 ul, 1 h at 4 C; 6% native PAGE at …
row,Sequence,Kd [nM]
1,TCGACGGCCAAGCCGGATGTGAGTGCC (double strand) [ETS Site-WT (GGAT)],1
2,TCGACGGCCAAGCCGGAAGTGAGTGCC (double strand) [ETS Site-WT (GGAA)],1
